From patent US20260242478A1 (published 2026)
Where no end group is shown, it is not given here.

B1: Phage-2639 (peptide)
peptide: VGNWCTPMWMCQAF
modifications: cysteine pairing not given here; also: displayed on phage pIII, linker not given here
notes: Clonal phage of the Peptide-180 library, tested as crude phage supernatant; not shown: pIII filament protein of the bacteriophage
B2: Phage-2645 (peptide)
peptide: FPKWCTPEWMCSLT
modifications: cysteine pairing not given here; also: displayed on phage pIII, linker not given here
notes: as for B1
B3: Phage-2640 (peptide)
peptide: VPKWCTPEWMCIIH
modifications: cysteine pairing not given here; also: displayed on phage pIII, linker not given here
notes: as for B1
B4: Phage-2649 (peptide)
peptide: TWKWCTPAWMCSVM
modifications: cysteine pairing not given here; also: displayed on phage as pIII fusion, fusion junction and sequence not given here
notes: as for B1
B5: Phage-2644 (peptide)
peptide: PERMCVPQWMCTVT
modifications: cysteine pairing not given here; also: displayed on phage pIII, linker not given here
notes: as for B1
B6: Phage-2648 (peptide)
peptide: EYKWCTPIWMCQGN
modifications: cysteine pairing not given here; also: displayed on phage as pIII fusion, fusion junction and sequence not given here
notes: as for B1
B7: Phage-2641 (peptide)
peptide: AEKLCIPDWMCDVY
modifications: cysteine pairing not given here; also: displayed on phage pIII, linker not given here
notes: as for B1
B8: Phage-2647 (peptide)
peptide: LVKWCIPDWMCSLS
modifications: cysteine pairing not given here; also: displayed on phage as pIII fusion, fusion junction and sequence not given here
notes: as for B1
B9: Phage-2637 (peptide)
peptide: TVKWCTPPWMCEES
modifications: cysteine pairing not given here; also: displayed on phage pIII, linker not given here
notes: as for B1
B10: Phage-2642 (peptide)
peptide: DLKWCIPSWMCTST
modifications: cysteine pairing not given here; also: displayed on phage pIII, linker not given here
notes: as for B1
B11: Phage-2643 (peptide)
peptide: VEKLCKPAWMCNGQ
modifications: cysteine pairing not given here; also: displayed on phage pIII, linker not given here
notes: as for B1
B12: Phage-2646 (peptide)
peptide: QPKWCTPDWMCTGI
modifications: cysteine pairing not given here; also: displayed on phage as pIII fusion, fusion junction and sequence not given here
notes: as for B1
B13: Phage-2638 (peptide)
peptide: WAKWCTPVWMCQGI
modifications: cysteine pairing not given here; also: displayed on phage pIII, linker not given here
notes: as for B1

target: T1, PSMA Fab (biotinylated (site not stated)); experiment: phage ELISA, biotinylated PSMA Fab on neutravidin plate, anti-M13-HRP detection, competitor PSMA antigen pre-incubated
T1 construct: Biotinylated PSMA Fab captured on neutravidin plates in the phage ELISA; also called Anti-PSMA Fab; 006 PSMA Fab

How did the “Phage binding ELISA signal, Anti-PSMA Fab with PSMA antigen” value turn out when LQKWCIPAWMCSST [Phage-2657] was run?
The value was 0.0717.

AIKWCIPAWMCAQA (cysteine pairing not given here; also: displayed on phage as pIII fusion) [Phage-2656] was tested. Which “Phage binding ELISA signal, Anti-PSMA Fab with PSMA antigen” value did it give?
Its value is 0.0786.

How did the “Phage binding ELISA signal, Anti-PSMA Fab with PSMA antigen” value turn out when ETKWCIPVWMCEHK [Phage-2653] was run?
Its value is 0.122.

With DVKWCIPPWMCPSF [Phage-2650] as the binder, how does the “Phage binding ELISA signal, Anti-PSMA Fab with PSMA antigen” value read?
The value was 0.0771.

Which “Phage binding ELISA signal, Anti-PSMA Fab with PSMA antigen” value does the source give for MPKWCTPQWMCEMY [Phage-2658] here?
The value was 0.0641.

With VVKWCTPAWMCSLN [Phage-2663] as the binder, how does the “Phage binding ELISA signal, Anti-PSMA Fab with PSMA antigen” value read?
Its value is 0.0846.

With APHLCIPKWMCNPS [Phage-2664] as the binder, how does the “Phage binding ELISA signal, Anti-PSMA Fab with PSMA antigen” value read?
The value was 0.105.

Which “Phage binding ELISA signal, Anti-PSMA Fab with PSMA antigen” value does the source give for FVNMCKPAWMCSLL [Phage-2655] here?
The value was 0.0949.

GEHWCTPAWMCSVM [Phage-2659] was tested. Which “Phage binding ELISA signal, Anti-PSMA Fab with PSMA antigen” value did it give?
The value was 0.68.

With APKWCTPSWMCQQV [Phage-2661] as the binder, how does the “Phage binding ELISA signal, Anti-PSMA Fab with PSMA antigen” value read?
Its value is 0.121.

With HEKWCTPPWMCELI [Phage-2654] as the binder, how does the “Phage binding ELISA signal, Anti-PSMA Fab with PSMA antigen” value read?
The value was 0.0717.

With SNHLCTPPWMCYGF [Phage-2652] as the binder, how does the “Phage binding ELISA signal, Anti-PSMA Fab with PSMA antigen” value read?
Its value is 0.0665.

Which “Phage binding ELISA signal, Anti-PSMA Fab with PSMA antigen” value does the source give for EFKWCIPMWMCQAN [Phage-2665] here?
Its value is 0.0753.

How did the “Phage binding ELISA signal, Anti-PSMA Fab with PSMA antigen” value turn out when LQNWCVPAWMCELM [Phage-2651] was run?
The value was 0.068.

VEKWCRPSWMCQQV [Phage-2660] was tested. Which “Phage binding ELISA signal, Anti-PSMA Fab with PSMA antigen” value did it give?
The value was 0.09.

DYKWCTPPWMCLVD [Phage-2662] was tested. Which “Phage binding ELISA signal, Anti-PSMA Fab with PSMA antigen” value did it give?
The value was 0.083.

target: T2, PSMA Fab (006 PSMA Fab); experiment: clonal phage ELISA on captured PSMA Fab, wells pre-incubated with PSMA antigen as competitor, anti-M13 HRP detection;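 also: crude clonal phage supernatants added, with no intervening wash, to wells preincubated with PSMA antigen in blocking buffer, incubated briefly, then washed before detecting bound phage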
T2 construct: also called Anti-PSMA Fab; anti-PSMA Fab
Procedure: (§1) Clonal phage were harvested as crude supernatants and screened via standard ELISAs. […] Prior to the addition of clonal phage. wells were incubated with blocking buffer and PSMA antigen or blocking buffer alone. Without washing or aspirating, clonal phage supernatants were then added to the wells and incubated for a short time. Wells were then washed followed by detection of bound phage using a horse radish conjugated anti-M13 antibody.

Which “Phage binding ELISA signal, Anti-PSMA Fab with PSMA antigen” value does the source give for MSKWCVPTWMCQWQ [Phage-2741] here?
Its value is 0.0979.

For GNSWCTPQWMCTGF [Phage-2740], which “Phage binding ELISA signal, Anti-PSMA Fab with PSMA antigen” value is on record?
The value was 0.0596.

For DIKRCTPAWMCSWM [Phage-2742], which “Phage binding ELISA signal, Anti-PSMA Fab with PSMA antigen” value is on record?
The value was 0.0807.

target: T3, PSMA Fab (006 PSMA Fab) (biotinylated (site not given)); experiment: clonal phage ELISA; biotinylated PSMA Fab on neutravidin plate, blocking buffer alone; anti-M13 HRP detection;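 also: crude clonal phage supernatants added without washing to wells pretreated with blocking buffer with or without PSMA antigen, short incubation, then washed before detecting bound phage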
T3 construct: also called Anti-PSMA Fab; anti-PSMA Fab

B1 was tested. Which “Phage binding ELISA signal, Anti-PSMA Fab” value did it give?
The value was 0.961.

How did the “Phage binding ELISA signal, Anti-PSMA Fab” value turn out when B2 was run?
The value was 0.955.

How did the “Phage binding ELISA signal, Anti-PSMA Fab” value turn out when B3 was run?
The value was 0.958.

Which “Phage binding ELISA signal, Anti-PSMA Fab” value does the source give for B4 here?
Its value is 0.947.

B5 was tested. Which “Phage binding ELISA signal, Anti-PSMA Fab” value did it give?
The value was 0.956.

With B6 as the binder, how does the “Phage binding ELISA signal, Anti-PSMA Fab” value read?
The value was 0.95.

Which “Phage binding ELISA signal, Anti-PSMA Fab” value does the source give for B7 here?
The value was 0.957.

How did the “Phage binding ELISA signal, Anti-PSMA Fab” value turn out when B8 was run?
Its value is 0.952.

How did the “Phage binding ELISA signal, Anti-PSMA Fab” value turn out when B9 was run?
The value was 0.964.

How did the “Phage binding ELISA signal, Anti-PSMA Fab” value turn out when B10 was run?
Its value is 0.957.

Which “Phage binding ELISA signal, Anti-PSMA Fab” value does the source give for B11 here?
The value was 0.956.

How did the “Phage binding ELISA signal, Anti-PSMA Fab” value turn out when B12 was run?
The value was 0.954.

How did the “Phage binding ELISA signal, Anti-PSMA Fab” value turn out when B13 was run?
The value was 0.961.

target: T2, PSMA Fab (006 PSMA Fab); experiment: clonal phage ELISA on biotinylated PSMA Fab captured on neutravidin plates, anti-M13 HRP detection;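 also: crude clonal phage supernatants tested, before phage were added, wells were pretreated with PSMA antigen in blocking buffer or with blocking buffer only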
Procedure: as §1

MSKWCVPTWMCQWQ [Phage-2741] was tested. Which “Phage binding ELISA signal, Anti-PSMA Fab” value did it give?
The value was 0.711.

For GNSWCTPQWMCTGF [Phage-2740], which “Phage binding ELISA signal, Anti-PSMA Fab” value is on record?
The value was 0.712.

Which “Phage binding ELISA signal, Anti-PSMA Fab” value does the source give for DIKRCTPAWMCSWM [Phage-2742] here?
The value was 0.709.

target: T1, PSMA Fab; experiment: phage ELISA, biotinylated PSMA Fab on neutravidin plate, anti-M13-HRP detection, blocking buffer alone
Procedure: as §1

Which “Phage binding ELISA signal, Anti-PSMA Fab” value does the source give for LQKWCIPAWMCSST [Phage-2657] here?
Its value is 0.92.

Which “Phage binding ELISA signal, Anti-PSMA Fab” value does the source give for AIKWCIPAWMCAQA (cysteine pairing not given here; also: displayed on phage as pIII fusion) [Phage-2656] here?
The value was 0.92.

For ETKWCIPVWMCEHK [Phage-2653], which “Phage binding ELISA signal, Anti-PSMA Fab” value is on record?
Its value is 0.934.

DVKWCIPPWMCPSF [Phage-2650] was tested. Which “Phage binding ELISA signal, Anti-PSMA Fab” value did it give?
The value was 0.944.

Which “Phage binding ELISA signal, Anti-PSMA Fab” value does the source give for MPKWCTPQWMCEMY [Phage-2658] here?
Its value is 0.92.

Which “Phage binding ELISA signal, Anti-PSMA Fab” value does the source give for VVKWCTPAWMCSLN [Phage-2663] here?
The value was 0.902.

APHLCIPKWMCNPS [Phage-2664] was tested. Which “Phage binding ELISA signal, Anti-PSMA Fab” value did it give?
Its value is 0.899.

Which “Phage binding ELISA signal, Anti-PSMA Fab” value does the source give for FVNMCKPAWMCSLL [Phage-2655] here?
Its value is 0.923.

GEHWCTPAWMCSVM [Phage-2659] was tested. Which “Phage binding ELISA signal, Anti-PSMA Fab” value did it give?
Its value is 0.919.

Which “Phage binding ELISA signal, Anti-PSMA Fab” value does the source give for APKWCTPSWMCQQV [Phage-2661] here?
The value was 0.908.

HEKWCTPPWMCELI [Phage-2654] was tested. Which “Phage binding ELISA signal, Anti-PSMA Fab” value did it give?
The value was 0.929.

Which “Phage binding ELISA signal, Anti-PSMA Fab” value does the source give for SNHLCTPPWMCYGF [Phage-2652] here?
The value was 0.939.

EFKWCIPMWMCQAN [Phage-2665] was tested. Which “Phage binding ELISA signal, Anti-PSMA Fab” value did it give?
The value was 0.896.

LQNWCVPAWMCELM [Phage-2651] was tested. Which “Phage binding ELISA signal, Anti-PSMA Fab” value did it give?
Its value is 0.941.

VEKWCRPSWMCQQV [Phage-2660] was tested. Which “Phage binding ELISA signal, Anti-PSMA Fab” value did it give?
The value was 0.914.

Which “Phage binding ELISA signal, Anti-PSMA Fab” value does the source give for DYKWCTPPWMCLVD [Phage-2662] here?
The value was 0.904.

target: T3, PSMA Fab (006 PSMA Fab); experiment: clonal phage ELISA; biotinylated PSMA Fab on neutravidin plate, wells pre-incubated with PSMA antigen as competitor; anti-M13 HRP detection;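 also: crude clonal phage supernatants added to antigen-treated wells without a wash, incubated briefly, then bound phage read out via horse radish–conjugated anti-M13 antibody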
Procedure: as §1

With B1 as the binder, how does the “Phage binding ELISA signal, Anti-PSMA Fab with PSMA antigen” value read?
The value was 0.0864.

B2 was tested. Which “Phage binding ELISA signal, Anti-PSMA Fab with PSMA antigen” value did it give?
Its value is 0.0592.

B3 was tested. Which “Phage binding ELISA signal, Anti-PSMA Fab with PSMA antigen” value did it give?
The value was 0.0705.

B4 was tested. Which “Phage binding ELISA signal, Anti-PSMA Fab with PSMA antigen” value did it give?
The value was 0.113.

How did the “Phage binding ELISA signal, Anti-PSMA Fab with PSMA antigen” value turn out when B5 was run?
The value was 0.107.

B6 was tested. Which “Phage binding ELISA signal, Anti-PSMA Fab with PSMA antigen” value did it give?
The value was 0.0626.

How did the “Phage binding ELISA signal, Anti-PSMA Fab with PSMA antigen” value turn out when B7 was run?
The value was 0.0771.

With B8 as the binder, how does the “Phage binding ELISA signal, Anti-PSMA Fab with PSMA antigen” value read?
Its value is 0.0865.

B9 was tested. Which “Phage binding ELISA signal, Anti-PSMA Fab with PSMA antigen” value did it give?
The value was 0.0943.

B10 was tested. Which “Phage binding ELISA signal, Anti-PSMA Fab with PSMA antigen” value did it give?
The value was 0.0977.

For B11, which “Phage binding ELISA signal, Anti-PSMA Fab with PSMA antigen” value is on record?
The value was 0.0808.

Which “Phage binding ELISA signal, Anti-PSMA Fab with PSMA antigen” value does the source give for B12 here?
The value was 0.105.

With B13 as the binder, how does the “Phage binding ELISA signal, Anti-PSMA Fab with PSMA antigen” value read?
The value was 0.136.
